Source: patent publication US6323311A, “Synthesis of insulin derivatives” (University of Utah Research Foundation, priority 1999, dated 2001)
Like-named read-outs stand apart in the source and are kept apart here.

Columns and labels:
[1] = Accelerated shaking test, physical stability of mCE-PEG insulin conjugates (fibril formation/precipitation); assay type: physicochemical; conditions: 87 μM, 37° C., shaker 100 strokes/min, n=14 vials
Experimental: The long term physical stability of PEG-insulin derivatives was examined by their tendency to form fibrils in the accelerated shaking test at a concentration of 87 μM. Aggregation was evaluated in 5 ml borosilicate glass vials (1.2 ml filling volume) at 37° C., in a shaker at 100 strokes/min. Individual vials (n=14) were withdrawn at determined times, and the remaining soluble fraction of particular PEG-insulin derivatives was determined after filtration (PVDF membrane, 0.22 μm) using UV spectroscopy and/or HPLC. In parallel, vials were checked visually on a daily basis for the presence of turbidity and/or a precipitate, which was an independent indication that physical aggregation had occurred.

male Sprague-Dawley rats = test: Biological activity of mCE-PEG insulin conjugates, blood glucose depression in rat after i.v. injection; assay type: in vivo; conditions: from blood glucose AUC vs unmodified human insulin, fresh solution in PBS 20 μg/ml
Experimental: The biological activity of mCE-PEG-substituted insulin conjugates was tested in a rat model (male Sprague-Dawley rats, 250±50 g) by measuring blood glucose depression levels. The animals were fasted overnight (16 hours) prior to the experiment. In the morning, the rats were anesthetized with intraperitoneally administered sodium pentobarbital. Each animal received an i.v. injection (tail vein) of the particular insulin derivative (20 μg/ml NS/kg). Blood samples were taken from the jugular vein 15 and 5 minutes before injection and 15, 30, 60, 90, 120, 180, and 240 minutes after injection. Blood glucose levels were measured with an Accucheck III blood glucose monitor (Boehringer Mannheim). Bioactivities of insulin derivatives were calculated from AUC (area under curve) values, and the AUC value for the same dose of unmodified human insulin.

[2] = tested on: Inbred A/J and C57BL/10ScSn mice; conditions: intraperitoneal, 3 x 5 μg
Experimental: Inbred A/J and C57BL/10ScSn mice, 12 weeks old, were used throughout the experiments. Mice (10 per experimental group) were immunized intraperitoneally with 5 μg samples on day 0. Samples were injected either in soluble form (dissolved in PBS, pH 7.4) or as a precipitate (alum precipitate). After 3 weeks, the mice were given a secondary injection, and after another 3 weeks, a third injection. Eight days after the last immunization, the mice were exsanguinated and the serum was separated and stored at -80° C. The specific antibody level in the serum was determined by an ELISA indirect method as described in 44 J. Clin. Lab. Immunol. 191-241 (1994).

[3] = strain A/J, Soluble formulation
[4] = strain B10, Soluble formulation

Substance	Days to Precipitation ± S.D. [1] [days]	Biological Activity ± S.D. (male Sprague-Dawley rats) [IU/mg]	Antibody Titres ([2]; strain A/J, Alum ppt.)	Antibody Titres [2, 3]	Antibody Titres ([2]; strain B10, Alum ppt.)	Antibody Titres [2, 4]
GlyA1-LysB29-di-mCE-PEG insulin [A1-B29-(PEG600)2 Insulin]	8.4 ± 1.3	19.1 ± 3.6				
GlyA1-LysB29-di-mCE-PEG insulin [A1-B29-(PEG2000)2 Insulin]		10.6 ± 2.1				
GlyA1-PheB1-LysB29-tri-mCE-PEG insulin [A1-B1-B29-(PEG600)3 Insulin]	35.9 ± 5.3	5.3 ± 1.1	0 log2 of serum dilution	0 log2 of serum dilution	0 log2 of serum dilution	0 log2 of serum dilution
GlyA1-PheB1-di-mCE-PEG insulin [A1-B1-(PEG600)2 Insulin]	26.4 ± 4.6	16.2 ± 3.2				
GlyA1-PheB1-di-mCE-PEG insulin [A1-B1-(PEG2000)2 Insulin]	19.3 ± 2.3					
GlyA1-mCE-PEG insulin [A1-PEG600 Insulin]		22.2 ± 4.2				
GlyA1-mCE-PEG insulin [A1-PEG2000 Insulin]		15.7 ± 3.1				
PheB1-mCE-PEG insulin [B1-PEG600 Insulin]	22.0 ± 4.6	22.8 ± 4.2	6.1 log2 of serum dilution	0 log2 of serum dilution	9.5 log2 of serum dilution	0 log2 of serum dilution
PheB1-mCE-PEG insulin [B1-PEG2000 Insulin]		15.4 ± 2.6	0 log2 of serum dilution	0 log2 of serum dilution	0 log2 of serum dilution	0 log2 of serum dilution
